# Publication PMC5705280
# Molecular target: Cul3 (Cullin3) (UniProt Q9JLV5)
# Test: co-IP
# Conditions: reference: PHLPP2 wild type; sites S1119,S1210
substance,measurement,value
PHLPP2 (from UniProt Q6ZVD8) PHLPP2-2A (S1119A/S1210A),binding against the reference,weaker
